Experimental findings from patent US12066430 are described below.

Assay in all cases: cell-based or functional assay
The target in assay [1] is HLA-A2 on control CD80+HLA-A2+ K562 cells (no defined peptide) (human).
For assay [2], the target named is single-chain trimer (SCT) of HLA-A2/MART1 26-35(A27L), on cells (human).
The target in assay [3] is single-chain trimer (SCT) of HLA-A2/NYESO1 157-165(C165V), on cells (human).
In assay [4] the target is single-chain trimer (SCT) of HLA-A2 with the USP7 mutant 9-mer peptide …, on K562 cells (human).

Turning to “1G4 TCR (A2/NYESO1 157-165-specific), expressed on cells”, in assay [1], the percentage of trogocytosis^+ control CD80^+HLA-A2^+ K562 cells (NYESO1-K562 dilution experiment) is 0.33% and the percentage of trogocytosis^+ control cells (MART1-K562 dilution experiment) worked out at 0.41%. Moreover, in assay [2], the percentage of trogocytosis^+ MART1-K562 cells (one per 10,000 control cells) is 1.6% and the share of MART1-K562 among trogocytosis^- target cells (1:1 mixture, co-incubated with 1G4-Jurkat) was 70.8%. In assay [3], the percentage of trogocytosis^+ NYESO1-K562 target cells (diluted 1:10,000 in control cells) was found to be 70.8%; the share of NYESO1-K562 among trogocytosis^+ target cells (1:1 mixture of NYESO1-K562 and MART1-K562, read by TCR dextramer staining) stood at 95.1%; the share of NYESO1-K562 among trogocytosis^- target cells (1:1 mixture, co-incubated with 1G4-Jurkat) was 23.7%; the trogocytosis (TCR transfer to K562) of CD8 co-expressing Jurkat cells relative to those only expressing TCR is 3 fold.
As for “F5 TCR (HLA-A2/MART1 26-35-specific), expressed on cells”, in assay [1], the percentage of trogocytosis^+ control CD80^+HLA-A2^+ K562 cells (NYESO1-K562 dilution experiment) was determined as 0.35% and the percentage of trogocytosis^+ control cells (MART1-K562 dilution experiment) came out at 0.46%. In assay [4], this substance showed a Specific Cytotoxic Killing (Avg. % Specific Lysis), E:T 2 to 1 (Avg. % Specific Lysis) of 0.0644; a Specific Cytotoxic Killing (Avg. % Specific Lysis), E:T 4 to 1 (Avg. % Specific Lysis) of 0.0366; a Specific Cytotoxic Killing (Avg. % Specific Lysis), E:T 8 to 1 (Avg. % Specific Lysis) of 0.0406; a Specific Cytotoxic Killing (Avg. % Specific Lysis), E:T 16 to 1 (Avg. % Specific Lysis) of 0. In assay [2], this substance came in with a Specific Cytotoxic Killing (Avg. % Specific Lysis), E:T 2 to 1 (Avg. % Specific Lysis) of 0.16; a Specific Cytotoxic Killing (Avg. % Specific Lysis), E:T 4 to 1 (Avg. % Specific Lysis) of 0.268; a Specific Cytotoxic Killing (Avg. % Specific Lysis), E:T 8 to 1 (Avg. % Specific Lysis) of 0.377; a Specific Cytotoxic Killing (Avg. % Specific Lysis), E:T 16 to 1 (Avg. % Specific Lysis) of 0.593. Moreover, in assay [2], the percentage of trogocytosis^+ MART1-K562 cells (one per 10,000 control cells) came to 73.4%; the share of MART1-K562 among trogocytosis^+ target cells (1:1 mixture, co-incubated with F5-Jurkat) amounted to 94.9%; the share of MART1-K562 among trogocytosis^- target cells (1:1 mixture, co-incubated with F5-Jurkat) is 18.8%; the shift in LNGFR and TCR staining of K562 target cells lay in the range of 2 to 3 fold. In assay [2], the shift in streptavidin staining of K562 target cells (transfer of biotinylated Jurkat membrane proteins) turned out to be 3.5 fold and the trogocytosis (TCR transfer to K562) of CD8 co-expressing Jurkat cells relative to those only expressing TCR worked out at 3 fold. Also, in assay [3], the percentage of trogocytosis^+ NYESO1-K562 target cells (diluted 1:10,000 in control cells) is 0% and the share of NYESO1-K562 among trogocytosis^- target cells (1:1 mixture, co-incubated with F5-Jurkat) was found to be 76.3%.
